In patent publication US20030032157A1, “Polypeptides interactive with Bcl-XL” (priority 2001, published 2003):

B1: SEQ ID NO 34 (peptide)
chain: TSTLPHIRRTR
notes: mRNA display clone from a hypothetical or unknown polypeptide
B2: SEQ ID NO 36 (peptide)
chain: ILTSPWTTSSGLWPRLQKAAEAFKQLNQP
notes: as for B1
B3: clone w75 (peptide)
chain: RTLQPRLLQNQQQHLPALPIWFLLQWLRLHPL
notes: as for B1
B4: SEQ ID NO 38 (peptide)
chain: MAVIINELSQRDSCGPLKISLNNKILVYGNLFSSFTP
notes: as for B1
B5: SEQ ID NO 39 (peptide)
chain: GLAKKSKRNPANLTPP
notes: as for B1
B6: SEQ ID NO 40 (peptide)
chain: SSQALRIHQWLHLFSDFTST
notes: as for B1
B7: SEQ ID NO 42 (peptide)
chain: GVSEAEGTFPLSTFLLGIASRLRSVA
notes: as for B1
B8: SEQ ID NO 43 (peptide)
chain: RAPRFIKQILLDLKREIDFNVRLVEYFNPLS
notes: as for B1
B9: SEQ ID NO 45 (peptide)
chain: LALAYYSSRQYASALKHIAEIIERGIRQH
notes: as for B1
B10: SEQ ID NO 46 (peptide)
chain: AAMLLDRRGTECDLWINEMSLLHKIVQDVYGTPHPPHS
notes: as for B1
B11: SEQ ID NO 47 (peptide)
chain: PWQYKPIADLYRGRESRPSAPR
notes: as for B1
B12: SEQ ID NO 48 (peptide)
chain: LFSVLLRYLADNFLPGGS
notes: as for B1
B13: SEQ ID NO 49 (peptide)
chain: DWQVLLGKLLWKIDNPGI
notes: as for B1
B14: SEQ ID NO 50 (peptide)
chain: GAMEREWAMFLRAASSRIRGGV
notes: as for B1
B15: transforming growth factor cluster polypeptide (peptide)
chain: FVRSVGWRLQNIGDDMDHAICGHDVRLG
notes: Selected clone with insert in reversed orientation relative to the parent mRNA; not further characterized
B16: L-plastin cluster polypeptide (peptide)
chain: SGLRKPTCGSSQR
notes: Selected clone derived from the 3' UTR of the parent mRNA; not further characterized
B17: arsenate resistance protein cluster polypeptide (peptide)
chain: AGTQPLILAQFMRVGGDELLHFLLW
notes: as for B15
B18: K-ras oncogene cluster polypeptide (peptide)
chain: MDTIKGFDLITNFQVVADALNISLLPNPLATA
notes: as for B16
B19: lysosomal pepstatin insensitive protease cluster polypeptide (peptide)
chain: ATWMKTLQGLLDRIQAFPSSPH
notes: as for B16
B20: MYBPC3 cluster polypeptide (peptide)
chain: EANRKQPKPNNSSTAYYNFTGVSILPSYKP
notes: as for B16
B21: cDNA FLJ20617 cluster polypeptide (peptide)
chain: GSLTHHINNIKPSSTR
notes: Selected clone translated from the incorrect reading frame; not further characterized
B22: UDP glucoronosyl transferase 2B4 precursor cluster polypeptide (peptide)
chain: VSCWPSYLKYPLSTASASLLATQLKSIA
notes: as for B21
B23: SEQ ID NO 13 (peptide)
chain: RGAVFSQDKDVVQEATKVLRNAADNFYINDR
notes: mRNA display clone from a known polypeptide
B24: SEQ ID NO 14 (peptide)
chain: TGTGAPRFIKEVQELNSALHQSDLIDIYRTLHP
notes: as for B23
B25: SEQ ID NO 15 (peptide)
chain: SNELTRAVEELHKLLKEARE
notes: as for B23
B26: SEQ ID NO 16 (peptide)
chain: TYWNLLPPKRPIKEVLTDIFAKVLEKGWVDSRS
notes: as for B23
B27: SEQ ID NO 17 (peptide)
chain: LFTILLTLWTMRCSSTPSG
notes: as for B23
B28: SEQ ID NO 18 (peptide)
chain: AGEDMEISVKELRTILNRIISKHKDLRT
notes: as for B23
B29: SEQ ID NO 19 (peptide)
chain: GLREESEEYMAAADEYNRLKQVKQPA
notes: as for B23
B30: SEQ ID NO 21 (peptide)
chain: WERIEERLAYIADHLGFSWTELARAL
notes: as for B23
B31: SEQ ID NO 22 (peptide)
chain: ARGDFAQAAQQLWLALRALGRPLPTSH
notes: as for B23
B32: SEQ ID NO 23 (peptide)
chain: GSSKDLAKHIQVVCDGMDLTPKIHDLKPQC
notes: as for B23
B33: SEQ ID NO 24 (peptide)
chain: GFLAAEQDIREEIRKVVQSLEQTAREVLTLLQG
notes: as for B23
B34: SEQ ID NO 26 (peptide)
chain: ANLLLLMVPILIAMAFLMLTERKILGYIQPR
notes: as for B23
B35: SEQ ID NO 27 (peptide)
chain: LRLNTTVWPTIITPILLTLFLITNRLITTR
notes: as for B23
B36: SEQ ID NO 28 (peptide)
chain: TLYLKLTALAVTFLGLLTALDLNYPT
notes: as for B23
B37: SEQ ID NO 29 (peptide)
chain: AGVFSAEPSPFPQTRRSMVFARHLREVGDEFRSRHLNSTDDADE
notes: as for B1
B38: SEQ ID NO 30 (peptide)
chain: GLKLATVAASMDRVPKVTPSSAISSIARENHEPERLGLNGIAETT
notes: as for B1
B39: SEQ ID NO 31 (peptide)
chain: MRDLPGHYYETLKFLVGHLKTIADHR
notes: as for B1
B40: SEQ ID NO 32 (peptide)
chain: CGGRMEDIPCSRVGHIYRKYVPYKVPAGVSLARNLKRVADWM
notes: as for B1

Molecular target: T1, human Bcl-XL-GST fusion protein (human, UniProt P08515 1-218 = GST; Q07817 1-211)
T1 construct: Made in E. coli, immobilized on glutathione Sepharose beads; whole entry named; also called Bcl-XL-glutathione S-transferase (GST) fusion protein; GST-BCL-XL
T1 sequence (P08515 1-218, tags or fused parts left off): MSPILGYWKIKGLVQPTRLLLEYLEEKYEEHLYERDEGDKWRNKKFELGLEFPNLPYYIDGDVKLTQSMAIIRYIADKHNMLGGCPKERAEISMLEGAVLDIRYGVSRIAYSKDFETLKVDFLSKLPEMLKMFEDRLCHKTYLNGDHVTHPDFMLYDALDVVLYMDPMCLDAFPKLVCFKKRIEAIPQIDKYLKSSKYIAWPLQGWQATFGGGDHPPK
Experiment: mRNA display selection on immobilized Bcl-XL-GST
Description: Detection of a polypeptide binding to a Bcl-XL-glutathione S-transferase (GST) fusion protein was carried out as follows. Twenty microliters of glutathione Sepharose 4B slurry (AP Biotech) was aliquoted to a microcentrifuge tube and washed with PBS. The Bcl-XL-GST fusion protein (60 μg), prepared as describe above, was added and allowed to bind to the Sepharose beads for 1 hr at 4° C. The beads were then re-washed in selection buffer (50 mM Tris-HCL pH 7.5, 150 mM KCl, 0.05% Triton X-100, 0.5 mg/ml BSA, and 0.1 mg/ml salmon sperm DNA). The Bcl-XL-GST beads were resuspended in 100 μl of selection buffer (approximately 11.5 μM Bcl-XL) and ³⁵S-labeled mRNA display construct or free peptide was added (approximately 10-60 nM) and incubated on a rotator for 1 hr at 4° C. The reaction was then transferred to a microcentrifuge column (BioRad) and unbound mRNA display constructs or free peptides were removed by a 10 sec spin at 1,000 rpm. The Sepharose beads were then washed three times with 500 μl of selection buffer. The extent of binding between the Bcl-XL-GST fusion protein and the mRNA display constructs or free peptides was determined by scintillation counting each fraction, including the recovered beads.
A human Bcl-XL-GST fusion protein was immobilized on Sepharose beads as described above for the binding assay and incubated with the mRNA display library. For the first round of selection, the input was approximately 0.06 pmol of each of the four source labeled libraries from human tissues (kidney, liver, bone marrow, and brain), which were mixed prior to selection. For subsequent rounds of selection, the input of each of the four source labeled libraries ranged from 0.25 to 0.92 pmol in total. After washing the beads of any unbound nucleic acid-protein fusion library members, the cDNA strand of the bound fusions were recovered in three elutions with 100 μl of 0.1N KOH. Eluates were subsequently neutralized by the addition of 2 μl of 1N Tris-HCL pH 7 and 8 μl of 1N HCL. A small scale PCR optimization was performed with the eluate to determine the number of cycles required to produce a strong signal without overamplification (typically 18-28 cycles). The library was then regenerated by PCR using the remainder of the eluate.

Binder | binding result
B1 | binds
B2 | binds
B3 | binds
B4 | binds
B5 | binds
B6 | binds
B7 | binds
B8 | binds
B9 | binds
B10 | binds
B11 | binds
B12 | binds
B13 | binds
B14 | binds
VHNFGRHWGLPLSFLLNYPLFLSP [SEQ ID NO 51] | binds
ASMAPVGRDAETLQKQKETIKAFLKKLEALMASNDNANKT [SEQ ID NO 52] | binds
CREQAELTGLRLASLGLKFNKIVHSSMTRAIET [SEQ ID NO 53] | binds
GTRISDMLKLIADTWQRNCCPA [SEQ ID NO 54] | binds
EQASVKYVILDMYRALLTLMNTSTAT [SEQ ID NO 55] | binds
EDLESVLIRLINWAKGSPIP [SEQ ID NO 56] | binds
RPVSFCGAVWTLNRAIGRHFVRGSR [SEQ ID NO 57] | binds
HAVVARLLHIGAIMFQRLDFIEQLSAPPA [SEQ ID NO 58] | binds
GQGTLWGSGMEAWLATVLKALPWHPTYQLEP [SEQ ID NO 59] | binds
IAQATKATIDKWNCIKLKIFYTSKKEAS [SEQ ID NO 60] | binds
VVDVPDFIVWLEEAVSDLHRAL [SEQ ID NO 61] | binds
QRRGNEFQLRDLADAWDLSSRSRQRGWQMPNCRSRRGPG [SEQ ID NO 62] | binds

Binder | binding result
B15 | binds
B16 | binds
B17 | binds
B18 | binds
B19 | binds
B20 | binds
B21 | binds
B22 | binds
B23 | binds
B24 | binds
B25 | binds
B26 | binds
B27 | binds
B28 | binds
B29 | binds
B30 | binds
B31 | binds
B32 | binds
B33 | binds
B34 | binds
B35 | binds
B36 | binds
B37 | binds
B38 | binds
B39 | binds
B40 | binds
